From the supplement of paper PMC10724198
± gives the standard deviation of the averaged measurements.

These sequences were tested on Saccharomyces cerevisiae (assay: protein stability index of tFT-peptide fusion (C-terminal peptide) (PSI (0-1 scale)); higher = more stable (slower turnover)). Conditions: genetic background: wild type; temperature: 30 C.
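Further: PSI is a weighted mean of sequencing reads over stability bins, variants kept only with over 10 reads, mCherry proximal and sfGFP distal, peptide attached via GGGS linker.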

Sequence	protein stability index
IMKKKKNKARDI	0.75 ± 0.055
IMSFTLLAPGQM	0.692 ± 0.019
INHNKNKTIIAL	0.655 ± 0.0075
INRDKLNRRKKL	0.687 ± 0.038
INSKTRIQVTEN	0.73 ± 0.035
INSSPRSSTLLL	0.686 ± 0.034
INWNVMDRVTCN	0.633 ± 0.12
IPLLEALLQLAA	0.562 ± 0.014
IPLSFDRLLLID	0.63 ± 0.015
IPPCRSFSYIAT	0.68 ± 0.048
IPPLNQDPFCAS	0.678 ± 0.017
IPPSSLSSPLPP	0.704 ± 0.019
IPQIVRKLVPLT	0.575 ± 0.007
IPSVRATDGKIM	0.649 ± 0.024
IRCHSERKSWMY	0.7 ± 0.065
IRDLFHHFFLSV	0.654 ± 0.038
IRIIETPDSFYK	0.795 ± 0.058
IRIKKGMETGKL	0.69 ± 0.0084
IRIKKQRKEKRK	0.734 ± 0.048
IRLSVPGLTCVS	0.504 ± 0.0031
IRPFALSPSSLP	0.658 ± 0.12
IRRKYEGNKEQN	0.721 ± 0.069
IRSRSVTKYGWS	0.606 ± 0.025

Sequence	protein stability index
IRVGVESGSRGR	0.728 ± 0.22
IRVLDVWRSGHL	0.737 ± 0.0079
ISPFPSFPPTLS	0.734 ± 0.064
ISPLPPVPAGLS	0.6906 ± 0.0056
ISPTPPAPSRPS	0.688 ± 0.015
ISRATMKARARG	0.6522 ± 0.004
ISVSGLVVSVGP	0.649 ± 0.011
ISWTRAPLAHPR	0.879 ± 0.17
ITLQGDWCRLVD	0.715 ± 0.092
ITWFRKVGAYGA	0.644 ± 0.069
IVFRLGRFCGRV	0.709 ± 0.018
IVNLAQAEFVVT	0.645 ± 0.039
IVRTKLHPIGTS	0.655 ± 0.043
IVSPGSLAGCSV	0.675 ± 0.034
IVTGMGVVHIWR	0.698 ± 0.04
IVTSPRPPRCTS	0.7193 ± 0.0051
IVVRAGGCSVGW	0.695 ± 0.081
IYNDPYYLIKAR	0.644 ± 0.018
IYPRLGPHSLVC	0.589 ± 0.016
KAPCRVGARKGG	0.688 ± 0.051
KCKLLKIMKKKE	0.636 ± 0.13
KDANACSCDATS	0.6774 ± 0.0026
KDDKQRKQHGKK	0.6632 ± 0.0046

Sequence	protein stability index
KDKKKNQNRKKN	0.661 ± 0.038
KDKRNEGSGLCK	0.645 ± 0.022
KDNCHSNQRELT	0.663 ± 0.046
KEEAKRPQSNET	0.706 ± 0.02
KEEAQKMKKIGE	0.752 ± 0.096
KEKSRNIKKRRK	0.705 ± 0.079
KEKYEQIDIGKN	0.719 ± 0.066
KELESKLISKKR	0.75 ± 0.068
KEREGSRKETKH	0.694 ± 0.01
KEYRTKNNKGRK	0.654 ± 0.11
KFHPRPPSRVLR	0.6542 ± 0.0022
KFWRCVVVGYGL	0.641 ± 0.099
KGHMYEFRKGVR	0.68 ± 0.011
KGINALICTGSI	0.6601 ± 0.0043
KGKKRKKKRNFR	0.68 ± 0.031
KGKRMSRLYSCG	0.667 ± 0.012
KGRGKRRGARAT	0.73 ± 0.053
KGRNYVGRIRNN	0.509 ± 0.024
KGVWLGGGCGLR	0.685 ± 0.025
KHKAQQGSHGPQ	0.616 ± 0.017
KHTGFAGGMTWT	0.707 ± 0.016
KIANNEIEYARD	0.598 ± 0.037
KIERSKKKRRKG	0.66 ± 0.079

Sequence	protein stability index
KIIKIHLFWGII	0.478 ± 0.041
KIIKIKKQGENK	0.597 ± 0.016
KIIQDCSSLSKK	0.683 ± 0.033
KIKKNKKKKRIN	0.658 ± 0.026
KIKKTITKNTKR	0.726 ± 0.0082
KIKNNIKKKKNR	0.697 ± 0.024
KILAVKIRRLYL	0.532 ± 0.018
KINRTKTAPITR	0.724 ± 0.044
KIRRKIRIYKRK	0.629 ± 0.1
KKCSNNPMTLRI	0.655 ± 0.032
KKEGEREQGVRW	0.703 ± 0.037
KKEKKKTKKEKR	0.696 ± 0.067
KKEKKQRKKING	0.672 ± 0.075
KKENKQEKKNMI	0.709 ± 0.016
KKEQRKKRQQKT	0.6958 ± 0.0066
KKGRAEKKKRRK	0.65 ± 0.051
KKICLEWMLLQS	0.7011 ± 0.0067
KKIKKKRTEPQP	0.694 ± 0.02
KKIKKRNIKKKT	0.67 ± 0.032
KKKANEMGKNRE	0.715 ± 0.028
KKKEKKRGRRKV	0.688 ± 0.073
KKKIKKKKEKNT	0.664 ± 0.032
KKKIKKQKKKQI	0.70912 ± 0.00033

Sequence	protein stability index
KKKKIEEKKDCK	0.715 ± 0.023
KKKKKEKKQERK	0.69526 ± 0.00024
KKKKKINRKKKK	0.705 ± 0.14
KKKKKKKKKKKN	0.595 ± 0.034
KKKKKKTTPKTN	0.745 ± 0.038
KKKKKKYRKKKK	0.668 ± 0.0087
KKKKKQRGKKQK	0.722 ± 0.014
KKKKKQRMKRNG	0.674 ± 0.049
KKKKKRGKTKKK	0.734 ± 0.055
KKKKKTKEINLK	0.6698 ± 0.00079
KKKKKTNKDKGQ	0.66 ± 0.067
KKKKMKKNKERK	0.708 ± 0.049
KKKKNKKNKKQY	0.676 ± 0.074
KKKKQNKKKIKK	0.68 ± 0.086
KKKKYKKKRKIK	0.74 ± 0.015
KKKNKEQTKKTK	0.719 ± 0.024
KKKNQGKKKIKK	0.699 ± 0.085
KKKNTKKKNEQS	0.725 ± 0.014
KKKQKKKKHEQK	0.7 ± 0.034
KKKQMREQPKNE	0.7315 ± 0.0047
KKKRDKKGKKKQ	0.697 ± 0.012
KKKSKKKNKKKE	0.766 ± 0.11
KKKVEIKCRKRQ	0.667 ± 0.0067

Sequence	protein stability index
KKLELLNRDRKV	0.641 ± 0.042
KKLKKTTNQTKK	0.616 ± 0.022
KKLNKNKSKINR	0.683 ± 0.01
KKMMQNKKQTEI	0.727 ± 0.036
KKNEKGSKGAEY	0.66 ± 0.03
KKNKKKKKRARY	0.707 ± 0.038
KKNYKNIEKKET	0.658 ± 0.11
KKQKKEKKKSHK	0.757 ± 0.068
KKQLIPPKHHQR	0.661 ± 0.022
KKRKKKKIIQTK	0.65 ± 0.11
KKRNKNKKTKEE	0.68 ± 0.0099
KKRRPKINEIKE	0.643 ± 0.013
KKRVHNRKEETE	0.691 ± 0.091
KKTERRNKKKIR	0.695 ± 0.031
KKTKKKKQTKRK	0.677 ± 0.038
KKVRTNTSKEIK	0.692 ± 0.15
KKWKKKNNKRNG	0.707 ± 0.17
KLDDEVLFKRNI	0.692 ± 0.057
KLKEDRRIGRNR	0.668 ± 0.033
KLKTTEKTNPRE	0.805 ± 0.14
KLQKTKNPKSNT	0.6624 ± 0.0046
KLTKGKIQLHIK	0.593 ± 0.017
KMIDNKQKSVAV	0.675 ± 0.012

Sequence	protein stability index
KMRKIRSKRLKW	0.681 ± 0.028
KNDKHQTRKSTT	0.703 ± 0.11
KNKENLNINNKR	0.747 ± 0.0078
KNKQQKKNKQKR	0.643 ± 0.045
KNKRKTNLRKKT	0.6961 ± 0.00039
KNMNQIKKKNRE	0.664 ± 0.061
KNNERIDKRKKI	0.726 ± 0.063
KNNKEKQKKKKR	0.663 ± 0.084
KNNKNQKELDTK	0.677 ± 0.065
KNPSLSSPLPHP	0.6908 ± 0.0041
KNSKNIRNKTNE	0.711 ± 0.017
KNSTKHIKNEKN	0.774 ± 0.044
KNTRLKKEKVSR	0.829 ± 0.23
KPCGRAEERRSG	0.674 ± 0.035
KPLDPNRHVIPG	0.652 ± 0.021
KPLLSPPTIFPL	0.711 ± 0.032
KPQQKQEKLTNP	0.736 ± 0.043
KPYKTYKIIKRE	0.6578 ± 0.0028
KQFKFPLRVIRA	0.519 ± 0.024
KQKKAETQATQK	0.678 ± 0.038
KQPGAGGGEVGG	0.6555 ± 0.002
KQRGSKVIIKVD	0.663 ± 0.011
